Test results: paper doi:10.1101/2025.07.10.664112 (bioRxiv, 2025)
“And” between values parts separate entries of the source, which are not always exact repeats. Equal entries are not always repeated.

Target: the molecule itself
Assay: mass photometry

B1: Heterogeneous nuclear ribonucleoprotein A2/B1 (hnRNPA2B1), full length, tag-free (natural protein, human, UniProt P22626 1-353, looked up)
chain: MEKTLETVPLERKKREKEQFRKLFIGGLSFETTEESLRNYYEQWGKLTDCVVMRDPASKRSRGFGFVTFSSMAEVDAAMAARPHSIDGRVVEPKRAVAREESGKPGAHVTVKKLFVGGIKEDTEEHHLRDYFEEYGKIDTIEIITDRQSGKKRGFGFVTFDDHDPVDKIVLQKYHTINGHNAEVRKALSRQEMQEVQSSRSGRGGNFGFGDSRGGGGNFGPGPGSNFRGGSDGYGSGRGFGDGYNGYGGGPGGGNFGGSPGYGGGRGGYGGGGPGYGNQGGGYGGGYDNYGGGNYGSGNYNDFGNYNQQPSNYGPMKSGNFGGSRNMGGPYGGGNYGPGGSGGSGGYGGRSRY
- stoichiometry N: 2 and 4
